Data published in patent publication US20110301079A1 (INSTITUTO DI RICERCHE DI BIOLOGIA MOLECOLARE P ANGELETTI S …, published 2011).
Groups on a side chain read outwards from the residue. *: point of attachment. cholesteroyl = cholesterol group linked to a cysteine residue via the side-chain thiol; Succinimide(1-Et,3-yl) = CCN1C(=O)CC(*)C1=O

T1: mouse NMUR1-ATG (mouse, UniProt O55040 1-428)
T1 sequence (looked up): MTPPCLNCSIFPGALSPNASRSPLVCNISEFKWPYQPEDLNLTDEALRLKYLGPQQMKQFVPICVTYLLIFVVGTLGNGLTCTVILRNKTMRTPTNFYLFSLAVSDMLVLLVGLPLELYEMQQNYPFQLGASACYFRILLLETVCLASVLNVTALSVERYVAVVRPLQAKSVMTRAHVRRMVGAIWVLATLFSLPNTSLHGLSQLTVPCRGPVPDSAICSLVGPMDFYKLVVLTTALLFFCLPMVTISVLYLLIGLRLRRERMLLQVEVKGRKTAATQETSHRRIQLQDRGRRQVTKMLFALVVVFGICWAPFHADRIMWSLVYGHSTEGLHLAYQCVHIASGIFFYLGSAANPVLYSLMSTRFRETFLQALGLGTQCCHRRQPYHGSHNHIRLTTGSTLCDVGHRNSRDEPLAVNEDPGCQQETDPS

T2: human NMUR1 (human, UniProt Q9HB89 1-426)
T2 sequence (looked up): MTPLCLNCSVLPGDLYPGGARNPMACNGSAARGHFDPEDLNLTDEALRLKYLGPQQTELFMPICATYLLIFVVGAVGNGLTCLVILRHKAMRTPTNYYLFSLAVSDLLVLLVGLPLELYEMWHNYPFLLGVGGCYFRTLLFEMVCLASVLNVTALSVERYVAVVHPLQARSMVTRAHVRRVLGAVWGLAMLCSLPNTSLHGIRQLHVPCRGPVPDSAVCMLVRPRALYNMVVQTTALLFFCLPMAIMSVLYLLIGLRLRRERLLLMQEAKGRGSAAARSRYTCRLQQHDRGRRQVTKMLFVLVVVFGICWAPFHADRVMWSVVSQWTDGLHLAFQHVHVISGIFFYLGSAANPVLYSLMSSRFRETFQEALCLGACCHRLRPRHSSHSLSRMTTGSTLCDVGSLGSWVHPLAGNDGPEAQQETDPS

T3: dog NMUR1-ATG (dog, UniProt A0A8I3S7S8 1-422)
T3 sequence: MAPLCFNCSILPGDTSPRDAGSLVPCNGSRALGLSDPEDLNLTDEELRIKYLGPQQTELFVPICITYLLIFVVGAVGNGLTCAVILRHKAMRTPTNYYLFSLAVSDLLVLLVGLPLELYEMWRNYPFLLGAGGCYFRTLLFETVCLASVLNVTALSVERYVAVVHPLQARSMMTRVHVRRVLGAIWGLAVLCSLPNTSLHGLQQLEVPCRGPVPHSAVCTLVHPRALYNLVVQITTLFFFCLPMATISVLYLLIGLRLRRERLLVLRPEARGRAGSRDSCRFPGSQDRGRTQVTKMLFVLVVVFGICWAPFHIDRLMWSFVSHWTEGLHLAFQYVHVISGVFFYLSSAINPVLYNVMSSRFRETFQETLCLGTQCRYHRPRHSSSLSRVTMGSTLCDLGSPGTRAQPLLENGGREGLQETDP


Tests used:
Assay in all cases: cell-based or functional assay
[1] = molecular target: T1, mouse NMUR1-ATG
[2] = molecular target: mouse NMUR2 (mouse, UniProt Q8BZ39 1-395)
Sequence of mouse NMUR2 (Q8BZ39 whole entry): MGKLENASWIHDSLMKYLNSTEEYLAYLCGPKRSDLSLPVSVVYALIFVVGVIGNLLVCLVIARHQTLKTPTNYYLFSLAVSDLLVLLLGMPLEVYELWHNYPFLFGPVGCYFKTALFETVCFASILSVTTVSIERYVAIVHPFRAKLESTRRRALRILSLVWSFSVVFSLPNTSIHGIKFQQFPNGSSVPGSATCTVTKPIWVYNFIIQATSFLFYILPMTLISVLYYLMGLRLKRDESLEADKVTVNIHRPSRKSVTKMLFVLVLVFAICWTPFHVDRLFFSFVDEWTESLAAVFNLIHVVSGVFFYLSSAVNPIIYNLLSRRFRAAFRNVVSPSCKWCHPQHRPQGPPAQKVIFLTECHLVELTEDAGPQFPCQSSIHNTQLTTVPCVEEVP

[3] = molecular target: human NMUR2 (human, UniProt Q9GZQ4 1-415)
Sequence of human NMUR2 (Q9GZQ4 whole entry): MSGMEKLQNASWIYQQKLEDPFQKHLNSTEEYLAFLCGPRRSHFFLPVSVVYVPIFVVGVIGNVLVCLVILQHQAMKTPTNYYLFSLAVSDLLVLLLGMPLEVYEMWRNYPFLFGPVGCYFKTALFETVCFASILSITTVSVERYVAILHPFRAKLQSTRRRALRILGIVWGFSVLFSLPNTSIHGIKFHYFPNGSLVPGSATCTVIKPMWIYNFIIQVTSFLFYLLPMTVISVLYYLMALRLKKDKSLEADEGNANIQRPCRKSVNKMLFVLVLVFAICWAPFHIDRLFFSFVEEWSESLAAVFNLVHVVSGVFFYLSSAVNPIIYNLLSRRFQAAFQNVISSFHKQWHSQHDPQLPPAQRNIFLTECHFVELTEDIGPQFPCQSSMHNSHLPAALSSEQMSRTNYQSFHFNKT

[4] = molecular target: dog NMUR2 (dog)
[5] = molecular target: T2, human NMUR1
[6] = molecular target: T3, dog NMUR1-ATG

Binder | % Activity (maximum response at 1 µM compared to the human NMU-25 response) [1] | % Activity (maximum response at 1 µM compared to the human NMU-25 response) [2] | % Activity (maximum response at 1 µM compared to the human NMU-25 response) [3] | % Activity (maximum response at 1 µM compared to the human NMU-25 response) [4] | % Activity (maximum response at 1 µM compared to the human NMU-25 response) [5] | % Activity (maximum response at 1 µM compared to the human NMU-25 response) [6]
Ac-C([maleimide-(PEG)2 40 kDa])ILQRGSGTAAVDFTKKDHTATWGRPFFLFRPRN-NH2 [NMS1 (Ac-C2ILQRGSGTAAVDFTKKDHTATWGRPFFLFRPRN-CONH2)] | 82% | 99% | 81% | 78% | 91% | 97%
Ac-C(Succinimide(1-Et,3-yl))ILQRGSGTAAVDFTKKDHTATWGRPFFLFRPRN-NH2 (SMILES CC[C@H](C)[C@H](NC(=O)[C@H](CSC1CC(=O)N(CC)C1=O)NC(C)=O)C(=O)N[C@@H](CC(C)C)C(=O)N[C@@H](CCC(N)=O)C(=O)N[C@@H](CCCNC(=N)N)C(=O)NCC(=O)N[C@@H](CO)C(=O)NCC(=O)N[C@H](C(=O)N[C@@H](C)C(=O)N[C@@H](C)C(=O)N[C@H](C(=O)N[C@@H](CC(=O)O)C(=O)N[C@@H](Cc1ccccc1)C(=O)N[C@H](C(=O)N[C@@H](CCCCN)C(=O)N[C@@H](CCCCN)C(=O)N[C@@H](CC(=O)O)C(=O)N[C@@H](Cc1c[nH]cn1)C(=O)N[C@H](C(=O)N[C@@H](C)C(=O)N[C@H](C(=O)N[C@@H](Cc1c[nH]c2ccccc12)C(=O)NCC(=O)N[C@@H](CCCNC(=N)N)C(=O)N1CCC[C@H]1C(=O)N[C@@H](Cc1ccccc1)C(=O)N[C@@H](Cc1ccccc1)C(=O)N[C@@H](CC(C)C)C(=O)N[C@@H](Cc1ccccc1)C(=O)N[C@@H](CCCNC(=N)N)C(=O)N1CCC[C@H]1C(=O)N[C@@H](CCCNC(=N)N)C(=O)N[C@@H](CC(N)=O)C(N)=O)[C@@H](C)O)[C@@H](C)O)[C@@H](C)O)C(C)C)[C@@H](C)O) [NMS3 (Ac-C1ILQRGSGTAAVDFTKKDHTATWGRPFFLFRPRN-CONH2)] | 98% | 108% | 105% | 107% | 97% | 101%
ILQRGSGTAAVDFTKKDHTATWGRPFFLFRPRN (HELM PEPTIDE1{[CCCCCCCCCCCCCCCC(=O)[*:2]].I.L.Q.R.G.S.G.T.A.A.V.D.F.T.K.K.D.H.T.A.T.W.G.R.P.F.F.L.F.R.P.R.N.[am]}$$$$V2.0; SMILES CCCCCCCCCCCCCCCC(=O)N[C@H](C(=O)N[C@@H](CC(C)C)C(=O)N[C@@H](CCC(N)=O)C(=O)N[C@@H](CCCNC(=N)N)C(=O)NCC(=O)N[C@@H](CO)C(=O)NCC(=O)N[C@H](C(=O)N[C@@H](C)C(=O)N[C@@H](C)C(=O)N[C@H](C(=O)N[C@@H](CC(=O)O)C(=O)N[C@@H](Cc1ccccc1)C(=O)N[C@H](C(=O)N[C@@H](CCCCN)C(=O)N[C@@H](CCCCN)C(=O)N[C@@H](CC(=O)O)C(=O)N[C@@H](Cc1c[nH]cn1)C(=O)N[C@H](C(=O)N[C@@H](C)C(=O)N[C@H](C(=O)N[C@@H](Cc1c[nH]c2ccccc12)C(=O)NCC(=O)N[C@@H](CCCNC(=N)N)C(=O)N1CCC[C@H]1C(=O)N[C@@H](Cc1ccccc1)C(=O)N[C@@H](Cc1ccccc1)C(=O)N[C@@H](CC(C)C)C(=O)N[C@@H](Cc1ccccc1)C(=O)N[C@@H](CCCNC(=N)N)C(=O)N1CCC[C@H]1C(=O)N[C@@H](CCCNC(=N)N)C(=O)N[C@@H](CC(N)=O)C(N)=O)[C@@H](C)O)[C@@H](C)O)[C@@H](C)O)C(C)C)[C@@H](C)O)[C@@H](C)CC) [NMS5 (Pam-ILQRGSGTAAVDFTKKDHTATWGRPFFLFRPRN-CONH2)] | 83% | 78% | 93% | 100% | 85% | 82%
H-ILQRGSGTAAVDFTKKDHTATWGRPFFLFRPRN-NH2 [native human Neuromedin S peptide (NMS)] | 102% | 111% | 107% | 104% | 97% | 100%
Ac-C([maleimide-PEG 40 kDa])ILQRGSGTAAVDFTKKDHTATWGRPFFLFRPRN-NH2 [NMS4 (Ac-C4ILQRGSGTAAVDFTKKDHTATWGRPFFLFRPRN-CONH2)] | 95% | 104% | 94% | 101% | 88% | 81%
Ac-C(cholesteroyl)ILQRGSGTAAVDFTKKDHTATWGRPFFLFRPRN-NH2 [NMS2 (Ac-C3ILQRGSGTAAVDFTKKDHTATWGRPFFLFRPRN-CONH2)] | 39% | 32% | 16% | 84% | 11% | 46%
